The values below come from US11066482B2, “Specific plasmin inactivation by anticatalytic antibody” (priority 2017, dated 2021).

Series [1] concerns the target Plasmin (Homo sapiens, UniProt P00747). Kind of series: Velocity of S2251 substrate cleavage (Michaelis-Menten). Type of series: biochemical. The following applies: plasmin 100 nM, Pi 50 nM, S2251 0.1 to 4 mM. The procedure:
FIGS. 2A-2D show comparative inhibition of plasmin activity by Pi EACA and a2AP. […] The percent residual activity of plasmin as a function of the log concentration of inhibitor is shown. […] Human plasmin (100 nM, Hematologic Technologies, Inc.) was mixed with or without Pi (50 nM) in the presence of the substrate S2251 (0.1 to 4 mM). The initial rate of substrate cleavage (6 min.) was monitored at A405. Data were plotted and analyzed using Michaelis-Menten kinetics by the Graphpad Prism Program. Means (duplicate observations) are shown and are representative of 4 separate experiments. […] The means of duplicate observations are shown. […] Plasmin (25 nM) was mixed with various concentrations (0-200 nM) of mouse Fab or chimeric Fab (cFab) and S2251 (0.5 mM) in TBS buffer pH 7.4. Plasmin activity was measured by the release of paranitroanilide product at A405 over time.
The effect of Pi on the velocity of substrate cleavage by human plasmin was examined. Human plasmin (100 nM, Hematologic Technologies, Inc.) was mixed with or without Pi (50 nM) in the presence of the substrate S2251 (0.1 to 4 mM). The initial rate of substrate cleavage (6 min.) was monitored at A405. Data were plotted and analyzed using Michaelis-Menten kinetics by the Graphpad Prism Program.

Series [2] deals with human clot lysis initiated by r-tPA. Kind of series: Clot lysis assay of Pi, MAb 340 and control MAb with r-tPA. Conditions: human plasma, MAb 20 ug, r-tPA 2 nm. Type of series: biochemical. The procedure:
(§1) FIGS. 3A-3D show binding and inhibitory specificity of Pi. […] The effect of various concentrations of Pi (0-2000 nM) on clots formed with human, baboon or African green monkey plasmas. Clot lysis was measured in microtiter plates after addition of urokinase as described in Methods.
The comparative effects of Pi, MAb 340 and a control MAb (anti-digoxin) were examined in a clot lysis assay in microtiter plates. Human plasma (50 ul) was mixed with the MAbs (20 ug) in duplicate and then clotted with CaCl2 and thrombin, with or without recombinant (r)-tPA (2 nm). Clot dissolution at 37 deg. C. was monitored at 405 nm for 120 min. The time required to fully dissolve the clots during the 120 min. observation period was recorded.

Series [3] relates to plasmin-mediated fibrinolysis of human fibrin clots. In words: Fibrinolysis of 125I-fibrin human plasma clots with tPA, EACA vs Pi. Type of series: biochemical. The following applies: tPA 5 nM, 2.5 h; Pi 62.5 to 1000 nM, EACA 0.125 mM to 2 mM.
The target in series [4] is plasmin-mediated cleavage of factor V (Homo sapiens, UniProt P00747). In words: Factor V cleavage by plasmin, SDS-PAGE. Type of series: biochemical. Conditions: EACA 1 mM or Pi 5 ug, 1 hr RT. As to the method: FIGS. 4A-4D show comparative inhibition of factor V cleavage and human clot fibrinolysis (dissolution) by Pi, EACA and a2AP. […] The relative migration of molecular weight standards is shown (kDa). […] Human plasma was clotted with CaCl2 (10 mM) and thrombin (1 U/ml) in the presence of trace amounts of 1251 fibrinogen for 1 h at 37 deg. C. After washing in 1 ml of TBS pH 7.4, tPA (5 nM) was added in the presence of various amounts of Pi (62.5 to 1000 nM), EACA (0.125 mM to 2 mM) or no inhibitor. After 2.5 h the amount of fibrinolysis was determined by measuring the amount of 125I-fibrin dissolved in the supernatant. Means of duplicate observations are shown. […] Clots were formed as above in the presence of human plasminogen (2 uM) and a2AP (1 uM) or Pi (1 uM) and various amounts of tPA (0-10 nM). Clot dissolution was monitored in duplicate over 2 h in microtiter plate wells at A405 nm. […] Human plasma clots were mixed with various concentrations of Pi IgG, Pi Fab and chimeric Pi Fab (25 nM-400 nM) and plasmin was activated by urokinase. The amount of clot lysis was determined as described in Methods.
Factor V cleavage. Human factor V (2 ug, IHFV, Innovative Research) was mixed with plasmin (0.05 ug) for 1 hr at RT in the presence of EACA (1 mM), Pi (5 ug) or a control monoclonal antibody (digoxin, 5 ug). […] Protein bands were detected by staining with Coomassie blue dye.

The subject of series [5] is fibrinolytic bleeding. Kind of series: Fibrinolytic bleeding assay in vivo (humanized tail bleeding model). Details: species or system mice. The following applies: Pi 100 nmole/kg intravenously, mice given human plasminogen and plasminogen activator. As to the method: Anesthetized mice were treated in a randomized, blinded fashion with saline (Control), Pi (100 nmole/kg) or EACA (510 micromole/kg) intravenously. Human plasminogen (100 nmole/kg) and plasminogen activator (80,000 IU/kg) were given over 60 min. Tail bleeding was initiated 40 min. after the infusion. Tails were pre-warmed for 5 mins in 3 mL of 37° C. saline and bleeding was monitored as described.36,37 N=5-6, Means±SE are shown. *p<0.05, **p<0.01; ns, not significant. Kruskal Wallis one way ANOVA, Dunn's corrections.
Fibrinolytic bleeding assays in vivo. Anesthetized mice were treated in a randomized, blinded fashion with saline (Control), Pi (100 nmole/kg) or EACA (510 micromole/kg). Human plasminogen (100 nmole/kg) and plasminogen activator (80,000 IU/kg) were given over 60 min. Tail bleeding started 40 min. after the infusion. Tails were pre-warmed for 5 mins in 3 mL of 37° C. saline as described.(27, 28).
Suppression of fibrinolytic bleeding in vivo. The potential utility of the Pi for suppression of fibrinolytic bleeding was examined in vivo in randomized, blinded studies of surgical arterial and venous hemorrhage.

Series [6] has as its system baboon clots. Kind of series: Primate clot lysis, microtiter plate, urokinase. Type of series: biochemical. The following applies: baboon plasma, Pi 0-2000 nM, urokinase 10 U. As to the method: as §1
(§2) The ability of Pi to inhibit primate clot lysis was also examined in a microtiter plate assay. Human, baboon or African green monkey plasma (5 ul) was added to 96-well plates in the presence of various concentrations of Pi (0-2000 nM), CaCl2 (2 mM), thrombin (0.125 U/ml) and human fibrinogen (2 mg/ml) and urokinase (10 U). The wells were incubated at 37° C., clot lysis was recorded kinetically for 120 min. and the time required for complete clot lysis was recorded.

The test system of series [7] is African green monkey clots. Kind of series: Primate clot lysis, microtiter plate, urokinase. The format is biochemical. The following applies: African green monkey plasma, Pi 0-2000 nM, urokinase 10 U. The procedure: as §1, §2
The subject of series [8] is human clots. Kind of series: Primate clot lysis, microtiter plate, urokinase. Type of series: biochemical. The following applies: human plasma, Pi 0-2000 nM, urokinase 10 U. The procedure: as §1, §2

Sequence of plasmin-mediated cleavage of factor V (P00747 97-580 limits assumed): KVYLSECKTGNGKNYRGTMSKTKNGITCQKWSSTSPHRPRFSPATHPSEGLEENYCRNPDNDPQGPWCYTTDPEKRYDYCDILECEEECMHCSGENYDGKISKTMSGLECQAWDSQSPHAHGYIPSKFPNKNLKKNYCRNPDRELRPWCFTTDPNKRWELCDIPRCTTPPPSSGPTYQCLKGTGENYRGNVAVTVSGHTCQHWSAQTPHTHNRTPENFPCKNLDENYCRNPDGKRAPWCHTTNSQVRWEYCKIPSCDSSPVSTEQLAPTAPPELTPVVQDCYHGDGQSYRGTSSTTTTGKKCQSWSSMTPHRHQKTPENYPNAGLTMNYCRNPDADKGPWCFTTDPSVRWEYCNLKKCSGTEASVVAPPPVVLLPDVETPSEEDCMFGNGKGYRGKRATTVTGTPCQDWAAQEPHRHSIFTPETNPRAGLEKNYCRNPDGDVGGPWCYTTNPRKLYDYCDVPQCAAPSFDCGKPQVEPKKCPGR
Sequence of plasmin-mediated cleavage of factor V (P00747 581-810 limits assumed): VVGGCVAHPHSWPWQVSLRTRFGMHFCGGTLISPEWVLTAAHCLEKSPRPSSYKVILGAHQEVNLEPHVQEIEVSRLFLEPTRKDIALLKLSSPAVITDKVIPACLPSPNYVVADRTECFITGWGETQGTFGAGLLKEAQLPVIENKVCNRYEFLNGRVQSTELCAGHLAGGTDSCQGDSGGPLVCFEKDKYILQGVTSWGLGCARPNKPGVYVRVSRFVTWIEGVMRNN
Sequence of Plasmin (P00747 97-580 limits assumed): as the sequence (P00747 97-580 limits assumed) above
Sequence of Plasmin (P00747 581-810 limits assumed): as the sequence (P00747 581-810 limits assumed) above

B1: Pi: mouse monoclonal antibody plasmin inhibitor binding plasmin protease domain loops 4 and 5; LC SEQ ID NO:1, HC SEQ ID NO:4 (antibody)
heavy: EVKLLESGGGLVQPGGSLKLSCAASGFDFSRYWMSWVRQAPGKGLEWIGEINPDSSTINYTPSLKDKFIISRDNAKNSLYLQMSKVRSEDTALYYCASYCGYSYDALDCWGQGTSVTVSSAKTTPPSVYPLAPGSAAQTNSMVTLGCLVKGYFPEPVTVTWNSGSLSSGVHTFPAVLQSDLYTLSSSVTVPSSTWPSETVTCNVAHPASSTKVDKKIVPRDCGCKPCICTVPEVSSVFIFPPKPKDVLTITLTPKVTCVVVDISKDDPEVQFSWFVDDVEVHTAQTQPREEQFNSTFRSVSELPIMHQDWLNGKEFKCRVNSVAFPAPIEKTISKTKGRPKAPQVYTIPPPKEQMAKDKVSLTCMITDFFPEDITVEWQWNGQPAENYKNTQPIMDTDGSYFVYGKLNVQKSNWEAGNTFTCSVLHEGLHNHHTEKSLSHSPGK
light: DIQMTQSPSSLSASLGGKVSITCKASQDINKYISWYQHKPGKGPRLLIHYTSTLQPGIPSRFSGSGSGRDYSFSISNLEPEDIATYYCLQYDNLYTFGGGTKLEIKRADAAPTVSIFPPSSEQLTSGGASVVCFLNNFYPKDINVKWKIDGSERQNGVLNSWTDQDSKDSTYSMSSTLTLTKDEYERHNSYTCEATHKTSTSPIVKSFNWNEC
With B1, the “effect on Vmax of plasmin cleavage of S2251” value in series [1] was “reduced the Vmax of plasmin cleavage of S2251”. Besides, in series [2], the “clot dissolution during 120 min” value is given as “did not significantly dissolve”. Also, the “effect on fibrinolysis of human fibrin clots” value in series [3] was “significantly suppressed”. The “effect on Factor V cleavage by plasmin” value in series [4] was “Factor V cleavage was attenuated”. Also, in series [5], the “suppression of bleeding time vs controls” value is recorded as more than 80%. Besides, the “suppression of blood loss vs controls” value in series [5] was more than 85%. Also, the “effect on clot lysis” value in series [6] is listed as “dose-related suppression”; in series [7] it was “dose-related suppression”; in series [8], “markedly prolonged plasmin-induced fibrinolysis”.
